Target: the molecule itself
Assay: SEC

B1: PdeA(R69A) (enzyme, Caulobacter crescentus, UniProt Q9A310 1-555, looked up)
chain: MSFRTGERRIWDATATLEALGAADVALWIWEPETDRLRLNGAARALGLGPLAPECSSAAFRALALPQDAAQAEEVLKPREPGSEVVARFRVRGGETCLWRGVWLEEGVRAAGVVAPETKFSASELCDLTGLLDRRSFLARARERLAQEGTHQLVVADLDRLRRLNEALGHERADLVLAALGSRLAAAFPAQSILGRIGEDEFAVLCQPLGYEPSDVLRSALEQPLRVAGFDIHPTLSIGAVSAEGGLDAPDAAELLRRAELAVEAAAAAGRGGAAAYGRAMETDGLSRLALEADLRGAIGRGEITPYFQPIVRLSTGALSGFEALARWIHPRRGMLPPDEFLPLIEEMGLMSELGAHMMHAAAQQLSTWRAAHPAMGNLTVSVNLSTGEIDRPGLVADVAETLRVNRLPRGALKLEVTESDIMRDPERAAVILKTLRDAGAGLALDDFGTGFSSLSYLTRLPFDTLKIDRYFVRTMGNNAGSAKIVRSVVKLGQDLDLEVVAEGVENAEMAHALQSLGCDYGQGFGYAPALSPQEAEVYLNEAYVDGAAPVKARG
stoichiometry N: 2

Reference: publication PMC3410435 (Structure (London, England : 1993), 2012)
